# From paper PMC11612773 (2024)
# B1: recombinant soybean dehydrin GmPM12 (Glyma.04G009900.1) with carboxy-terminal hexahistidyl tag (natural protein)
# chain: MAEAQLRDQHGNPVPLTDQYGNPVILTDERGNPVQLTGVATTATGTAGSGFGSYGTGAYGGGASATTVADLLATQPRSGREARELRRSSSSSSSSSEDDGQGGRRKKGVKDKIKEKLPGVGGGNNNKEHAHTTTAPTTATNHPADQHEKKGIMERIKEKLPGHHTHLE
# B2: recombinant Arabidopsis dehydrin LEA14 (AT2G21490) with carboxy-terminal hexahistidyl tag (natural protein)
# chain: MADLRDEKGNPIHLTDTQGNPIVDLTDEHGNPMYLTGVVSSTPQHKESTTSDIAEHPTSTVGETHPAAAPAGAGAATAATATGVSAGTGATTTGQQHHGSLEEHLRRSGSSSSSSSEDDGQGGRRKKSIKEKIKEKFGSGKHKDEQTPATATTTGPATTDQPHEKKGILEKIKDKLPGHHNHNHP
# Target: the molecule itself
row,Protein,Kd
1,B1,6.8 µM
2,B2,13.3 µM
